In US20250076311A1 (Chugai, published 2025):
Substitutions are numbered along the chain they refer to.

B1: M103205H795-P1547m/M103202L889-SK1 (antibody, human IgG1, kappa, name in EU numbering)
heavy: QVTLKESGPVLVKPTETLTLTCTVSGIDLSHDDISWVRQAPGKGLEWVGIISYAGSTYYASWAKGRLTISKDTSKNQVVLTMTNMDPVDTATYYCARGVPAYSHGGDLWGQGTLVTVSSASTKGPSVFPLAPSSKSTSGGTAALGCLVKDYFPEPVTVSWNSGALTSGVHTFPAVLQSSGLYSLSSVVTVPSSSLGTQTYICNVNHKPSNTKVDKKVEPKSCDKTHTCPPCPAPELLGGPSVFLFPPKPKDTLMISRTPEVTCVVVDVSHEDPEVKFNWYVDGVEVHNAKTKPREEQYNSTYRVVSVLTVLHRDWLNGKEYKCKVSNKALPAPIEKTISKAKGQPREPQVYTLPPSREEMTKNQVSLTCLVKGFYPSDIAVEWESNGQPENNYKTTPPVLDSDKSFFLYSKLTVKKSRWQQGNVFSCSVMHEALHNHYTQKSLSLSP
light: DIVMTQSPATLSLSPGERATLSCTSSQSVYHANWLSWFQQKPGQPPKLLIYWASTLAYGVPSRFSGSGSGTDFTLTISSLQPEDAATYYCAGGYGGGRYAFGQGTKVEIKRTVAAPSVFIFPPSDEQLKSGTASVVCLLNNFYPREAKVQWKVDNALQSGNSQESVTEQDSKDSTYSLSSTLTLSKADYEKHKVYACEVTHQGLSSPVTKSFNRGEC
notes: copies: 2 + 2
B2: M103205H795-P1552m/M103202L889-SK1 (antibody, human IgG1, kappa, name in EU numbering)
heavy: B1 heavy with R313Q, G387R, D403R, K404G
light: B1 light
notes: copies: 2 + 2
B3: M103205H795-P1553m/M103202L889-SK1 (antibody, human IgG1, kappa, name in EU numbering)
heavy: B1 heavy with R313Q, G387R, K404R
light: B1 light
notes: copies: 2 + 2
B4: M103205H795-P1550m/M103202L889-SK1 (antibody, human IgG1, kappa, name in EU numbering)
heavy: B1 heavy with E390R, D403R, K404G, K415D
light: B1 light
notes: copies: 2 + 2
B5: M103205H795-P1548m/M103202L889-SK1 (antibody, human IgG1, kappa, name in EU numbering)
heavy: B1 heavy with G387R, D403R, K404G, K415D
light: B1 light
notes: copies: 2 + 2
B6: M103205H795-SG141/M103202L889-SK1 (antibody, human IgG1, kappa, name in EU numbering)
heavy: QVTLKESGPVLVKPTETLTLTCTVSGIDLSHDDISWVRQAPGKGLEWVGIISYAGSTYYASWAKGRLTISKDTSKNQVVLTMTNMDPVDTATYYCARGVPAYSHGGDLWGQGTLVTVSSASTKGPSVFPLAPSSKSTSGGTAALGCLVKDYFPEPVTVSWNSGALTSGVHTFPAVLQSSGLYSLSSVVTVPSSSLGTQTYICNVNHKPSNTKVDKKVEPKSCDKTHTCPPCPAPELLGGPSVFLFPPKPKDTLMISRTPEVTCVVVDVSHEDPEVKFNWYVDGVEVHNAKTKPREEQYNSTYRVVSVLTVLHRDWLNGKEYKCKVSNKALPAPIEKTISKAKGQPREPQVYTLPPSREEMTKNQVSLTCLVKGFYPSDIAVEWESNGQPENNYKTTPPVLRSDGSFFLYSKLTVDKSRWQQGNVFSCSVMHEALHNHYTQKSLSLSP
light: B1 light
notes: copies: 2 + 2
B7: M103205H795-P1549m/M103202L889-SK1 (antibody, human IgG1, kappa, name in EU numbering)
heavy: B1 heavy with G387R, K404R, K415D
light: B1 light
notes: copies: 2 + 2
B8: MS1032LO06-P1378m (antibody, human IgG1, kappa, name in EU numbering)
heavy: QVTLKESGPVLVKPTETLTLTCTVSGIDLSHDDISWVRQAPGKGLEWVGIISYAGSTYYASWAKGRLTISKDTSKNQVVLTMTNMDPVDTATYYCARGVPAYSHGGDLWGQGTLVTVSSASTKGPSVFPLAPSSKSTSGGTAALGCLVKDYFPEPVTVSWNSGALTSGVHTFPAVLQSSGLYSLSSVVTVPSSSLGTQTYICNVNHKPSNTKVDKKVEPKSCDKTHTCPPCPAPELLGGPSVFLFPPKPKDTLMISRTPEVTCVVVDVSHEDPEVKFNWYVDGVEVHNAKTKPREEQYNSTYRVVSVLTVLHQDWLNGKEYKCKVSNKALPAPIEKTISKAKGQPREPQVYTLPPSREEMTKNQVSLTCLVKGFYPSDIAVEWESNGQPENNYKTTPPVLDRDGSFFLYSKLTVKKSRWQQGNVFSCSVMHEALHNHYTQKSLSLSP
light: B1 light
notes: also called M103205H795-P1378m; copies: 2 + 2
B9: M103205H795-P1551m/M103202L889-SK1 (antibody, human IgG1, kappa, name in EU numbering)
heavy: B1 heavy with E390R, K404R, K415D
light: B1 light
notes: copies: 2 + 2
B10: M103205H795-P1555m/M103202L889-SK1 (antibody, human IgG1, kappa, name in EU numbering)
heavy: B1 heavy with R313Q, E390R, K404R
light: B1 light
notes: copies: 2 + 2

Biological target: T1, human FcγRIIb constitutively expressed on MDCK cells (human, UniProt P31994 43-310)
T1 sequence (looked up): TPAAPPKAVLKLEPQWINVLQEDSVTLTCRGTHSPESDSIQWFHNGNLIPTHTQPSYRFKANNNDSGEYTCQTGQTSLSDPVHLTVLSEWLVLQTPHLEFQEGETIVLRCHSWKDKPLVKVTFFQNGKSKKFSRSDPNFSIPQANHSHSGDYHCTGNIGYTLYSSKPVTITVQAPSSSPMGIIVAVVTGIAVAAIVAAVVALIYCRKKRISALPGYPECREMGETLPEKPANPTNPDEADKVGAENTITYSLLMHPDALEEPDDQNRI
Assay: cell-based or functional assay

Binder	celluar uptake (labelled human latent myostatin taken up as antigen-antibody complex)
B1	4.85 relative to SG1 = 1.00
B2	4.44 relative to SG1 = 1.00
B3	2.86 relative to SG1 = 1.00
B4	6.43 relative to SG1 = 1.00
B5	2.3 relative to SG1 = 1.00
B6	4.42 relative to SG1 = 1.00
B7	2.03 relative to SG1 = 1.00
B8	3.86 relative to SG1 = 1.00
B9	2.91 relative to SG1 = 1.00
B10	3.71 relative to SG1 = 1.00

Biological target: T2, soluble mouse FcγRII, His-tagged (mouse, UniProt P08101 30-210, limits assumed)
T2 construct: Captured on the chip through an anti-His antibody
T2 sequence (looked up): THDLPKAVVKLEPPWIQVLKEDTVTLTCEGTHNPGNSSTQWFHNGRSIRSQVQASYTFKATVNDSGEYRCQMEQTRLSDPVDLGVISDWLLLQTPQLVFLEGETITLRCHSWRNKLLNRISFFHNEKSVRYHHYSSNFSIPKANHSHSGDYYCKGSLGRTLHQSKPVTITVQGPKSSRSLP
Assay: SPR, mouse FcγRII captured via His-tag, antigen-antibody complex injected, pH 7.4, 25 C
Procedure, shortened: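 Biacore T200; His-tagged soluble FcγRII captured on an anti-His antibody chip, then antibody–antigen complexes injected. Running buffer 20 mM ACES, 150 mM NaCl, 1.2 mM CaCl₂, 0.05% Tween 20, pH 7.4; regeneration with 10 mM glycine-HCl pH 1.5; all at 25° C.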

Binder	biacore IC binding (relative, SG1 = 1.00)
B1	1.33 relative to SG1
B2	2.19 relative to SG1
B3	1.47 relative to SG1
B4	1.63 relative to SG1
B5	1.37 relative to SG1
B6	1.64 relative to SG1
B7	1.22 relative to SG1
B8	1.23 relative to SG1
B9	1.33 relative to SG1
B10	2.01 relative to SG1
